Molecular target: Lrp transcriptional regulator from Haloferax mediterranei (HFX_RS01210) (Haloferax mediterranei)
Assay: SEC; Superose6 Increase 10/300 GL, 50 mM Tris-HCl pH 8.0, 150 mM NaCl; molecular mass estimated against standard proteins of 6.5 to 660 kDa in the same buffer

stoichiometry N: 4
Substance: Lrp transcriptional regulator from Haloferax mediterranei (HFX_RS01210) (natural protein)
